In a protein production outcome set (Wang et al. 2014) one finds protein production data, which are given here for 17 sequences.
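Further: failed if final PepcDB status was selected cloned or expressed and not failed if soluble or beyond.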

The nature of the data set: label from the status in PepcDB records.
For “MRNKQSLVFLASSLFLLILAPITSEAISNPSTNINEVNREIVEESANDQATSAPSHSETLEQEPSLETTTTTDNHPAETDQSTATLEPSEQQKDDGTSATESVIVEPQPRMLAAPYATSLPDDPNIIPIDKVFQEPIGNATSILEGGKLLQLNPAVKSQKGAIWSKKPISLLSDFTFKSYLYLGNEYANAGDGMTFTLTNDPRMSTTPQEVIGSPGMGIGAYSTKAGQPYVRNALSIEFDTYKNTGSSNRMDREISQDKGNGHLAFVTPKANNNNYTGEHSGVTVAPTYLSNGTWRMLTVHWNAATKALTYDLEGVGTNTYVVSDLNAQFGATTVYWGFTSSTGGKYQENALAMTQIPTNVTSQAALSVNGQEFSSAVEAVKNDQVRLRNTLNIDNDFIEDRQPQVSIDLPDELAYEENSLTIDGKKVAAKDLTQTGNHLTIALNDYLVLKKDMMIELKTTLQDNTPEKVLTMNFDYYEEGTLLQKSNNVTITIPKPTEKTVTVFYKDAEGKDIAPPKSVTGKIGAPYQEKPLDISGYVFTKDSGNAEGTMTEETKDIYFYYRLGELYFKEAPKQITFGTEKIRNQPLIKLGHPTEGLKVVDERNANNWRLQLKQTQPLTNDSIVMPDVFSFVSTAGSSQITNEAITLLESNQKGETDLTALLDESKQQGIQINVPVAYQRVGTFKARLSWALEDVPGN”, the protein production entry is listed as “failed”.

Regarding “MRNVLITGATSGIGLSLVEKYLQAGDKVYACGRNFQAYLKSSSLIDAEKSDKLVKIVFDMNHHDAIIDVLTEVESLDIAILNAGTCEYIDDAMGFDAELFERVINTNVISIGYCLQALLPKMKQKGHLALMGSSAAFVPFQRAEAYGASKAAIHYLAQSLQLDIPKERLTISVIAPGFVKTPLTDKNDFPMPMLIEPDKAADHIINGINNNKQHIHFPFPFTRFLILMGALPSCIWQWMALRMKRK”, the protein production entry was “failed”. “MRPIKLLPDGLISQIAAGEVIERPASVLKELLENAIDAGTTDISVNIAQGGLKLIRVTDNGGGISGEELPLALTRHATSKIASQEDLYRITSLGFRGEGLASIASVSNLLLISHQPGGKHAWQIRSEGIRVMQPEPSSHAAGTTVEVRDLFFNLPARRKFLKTEATEFAHCEEIIRRMALSHAGIAFTLRHNGNLRGHWQSAEAAVRIKTVLGEEFTRSAAWIDERSAGIGLQGMLALPAYSRAARDMQYFFVNGRFVRDKLITHALREAYRDVLHLDRHAAFVLYLDIDPEQVDVNVHPTKTEIRFREARAIHQFIYHGVSKALSLPRSGTELSQSSSQLMADDIVPPAEKRVPAAPMLNYPRQTGLPSEMIAQPFNFYQVLSGSESDSTATQNPFRQTGAGESNEHPALPPLGFALGQLHGVYILAQNWKGLVIVDMHAAHERIVYEQLKLQMDEQTLSAQRLLIPVTFHADSLDIATAEENQSLLQQLGFEVTVLTATTLAVRAVPAILQDADTEKLVCNVLDEIRNGDPGQLLAARRNELLATMACHGAVRANRPLTLIEMNELLRKMEVTERSDQCNHGRPTWFEISLAELDKMFMRGK”: the protein production entry was “failed”. The result for “MRPMASELTTFVLIFGTLLFVFGLFSRKIEGTVVTIQMIFLAAGILLSPIGLNLISLSPRSGLVLGVIKVALVLTFFSDASLIGLHSLFLKERLSVRLLFLGLSLTICLGTVFAALLFADITFIDAILLGIILAPTDASLAQKVVEERQVPTLIRNGLIIESGLNDGAVMPLFIFVVALEAVEKLNRPLGTFLAIALEQIGFGIFVGIIIGLVGGWLFSRAFKAGSMSEVYYRTEFVALALISWLVADGVGGNGFIAAFIAGLATRIEDRQVTEEEVILLPRAEGNVLNLAVLFILGVMSAEYLPLVDLKIFAYAVLSLTVVRMVPVTISLIGSHLNIKTGLFMGWFGPRGLASIVLMLITVERIEGIRVSGTIGLAVITTVIISVFAHGITAGPVSNWYARIIATLPPDAPEKESVEELTALQGIETTENIHKEPY” reads “failed”; that for “MRPRPDAALAMSSGPPAARKPGVVQPALLNMSAWLRPEPGLTVVTPLVRALVLISAFSPQERWLGNGQLAQRTGLPPSTVSRIAQSLVHLGYLLHDGAERKYRLAPAVLGLGYAAIAHSAIQGLAGERMAAFARQHKVHVCLAARDRLDLVVLECRRSLECPVALPLHVGMRVGIAQSPMGWSMLAALPELERCYLLDNVERRMARDWSRLRRRVWEGMAQVGETGYCTSIGEWNPELGALATPVLLEGSSPFVLACIGTSQTMTRARVARELGPRLLAMREALQTEFNVIGH”, “failed”. For “MRPTPYLAPIPVRGRISRPQPKGLPVINMGYNELPYPPLPAIRAAMEETAERAQSYGSPHCDALRDALGAAHGLDPEQIVCGNGSEELLDVIARCFARPGDEILISEFGYIQFALTANRVGATLVKARERDNTSDVDALLAAVSEHTRLLFLANPNNPTGTMLEIDELSRLARDLPAQVVLVLDLAYGEFAAPDYCAAVHSLAANHENIVVTRTFSKAYGLAGARVGWCHAPAWMVPVLYAARGMGTVNALAQAGAVAGLADPAAIQERVDEIVSERARLTGALGQLGLVVTPSRTNFLMARFREGDAARTEALVEHLFEDAGIVVNRTREAGLEAFFRFSLSLPAHNDLLLDSIRRFIGQG”, the protein production result is listed as “failed”.

As for “MRQSCLMTEQLQDIKTLIEQGDTERAIHALTNFIRNDAHVNDEPYYLLGNAYRKMGDWQQALNNYLEAIERNPESPAVSARNMIMNILNFYNKDMYNQ”, the protein production entry is on record as “failed”. Then “MRQYMRTFLLVAVIFVFGFSIRMLNAGYDDPLYTDDDGLQYFQESDSYYNYRLTENLAIRGIPGDAVIGGKIWDLHSYYPPGVPLDYPAGILLLAVILHAITGVIAPVSLRAVCLIMPPLLAPLAGVICFFTVKRFQGDIPAFIAGLLLVSAPFYLVKTVYGLYDTDMLILTLSMAVLFLFIEADAREVNRVPLSAIGGFILFLFSITWSGWQVMFYVTLVTFIILILTSGSRKPLRNILGNIPTGLHGSVYPFNLFNHLELIKLIMTPLHIHDLVDKSIWYPWPDSYTTVAELQPAYMDKVLGHISPALTVLGAAGIPAYYMLYRRKGSVGLPVIFISVWIATGALMLLEGIRFVMILIAPLSVSAGIFTGILLDCSRKFRFRWIKGVLFILIIFTVSAQLAISGNMVADLKPGYNDYFEESAHWIAENTPSDAVIITEWSYGHFYASEADRPVVYDGRLAYIETLPARGVWYGSSMDPEIPTTARDYWINLSLSSENRTLSLNILRMLANSGDDAYILLKNQTGSEVQAYRIMNEILGLNRESAMDVLMHRYGFSESEALRILNMTHPMTSRKIVVVVPEKMIGLIASKGDSGDMPAGTYSLIRLKDDVIEEEIINSSGNVTVLETTDGSYRINRKYRKSLLLELIMGVNDENFSLVYRNKQIKVYIINS”, with “failed”; and “MRQYPRWYYDEFKQSGADYADIEEVNTYDLRMQNLRNIENESNRIRELLKLKKSDVVLEIGTGTGELALNISAHCKQVIAIDVSKMMINFARRKAESQNKTNIQFYNAGFLTYENHDELFDVIVTQLALHHLPDYWKMMALRRIYGMLKEEGKFYLHDVVFPSSIQNYDSYFDKIITDLEISAGDKIAEETEIHIKEEFSTLDWVMEGLLTGVGFYIEYIKYDGFMASYICKK”, with “failed”; and “MRRAAGKPRARRNTACHAAGILKKYPSVSALGCTFHDARQTSRCDENDKTNETMSSALLLVPDFSLILIGWLLVRYTPFDRGFWAGVERLVYFVLFPALLLQSTNSAKFDFSSTSAMLGLALLTMVFGMATGYLVKWVLRPAPADFASGLQTAFRFNSYIGLALAARLGNGEGLALMALVVGVTVPLCNVVAVWALAKHGEARVLRELVRNPLILATATGLVTNLLGLHPPEVVAMTLNRLGSASTALGLMTVGAGLQMSGATGTAGPMAWWSGVKLLAMPCFAWLVGKYLPLTPLQYQIVVVYASLPTASSSYILAVRMGGNGPMVAATISAMTVVAIVTTPVWLSLVS”, with “failed”. Take “MRRCFSKITDCHLGFKNSNFLLVGSEVGSGSVTRTITTTTSERLFSSSYAAHQVDQIKDNPVSDMLIDKFGRLHTYLRISLTERCNLRCQYCMPSEGVELTPKPQLLSQSEIVRLAGLFVSAGVNKIRLTGGEPTVRKDIEEICLQLSSLKGLKNLAITTNGITLAKKLPRLKECGLDSLNISLDTLVPAKFEFLTRRKGHDRVMKSIDTAIELGYNPVKVNCVIMRGLNDDEICDFVELTRDKPINVRFIEFMPFDGNVWNVKKLVPYAEVMDKVVKRFPSIKRMQDHPTETAKNFTIDGHCGSVSFITSMTEHFCAGCNRLRLLADGNFKVCLFGPSEVSLRDPLRSGADDEALREIIGAAVKRKKAAHAGMLDIAKTANRPMIHIGG”: the protein production result is recorded as “failed”. Then “MRRFLAGLWLLGLALGQGLVLPFEGPKGYGLAQAFAQGLKAPPPTLLALLLPDLPWRGSYELAGGLYTKAGARLARAATGADWVLLGREEEGGLRLILAREGGSEERLFKTPELAWLWLQGKGLAPRLSPLPTPGLPEERLRALAQGEAPDPLHRSALDLKEGRGSGLLEGLLPERLLLLWQGKLPRAYEAFRLLAEGKREEALALAEAMEEGDVLERTAAHLLFRALEDERWKASARRLAEAFPELSLAWEEVSFAAFQEGKGEEAKEALLKALALRPDYWLYWTNLGWAYYLTGDLPRAIQASERAVALSPNATAYYNLGLFKAIYGDFLGAKAAYDRALRLDQGEDYPEALKDLEEREEPLALFFRAYLAERTGLEAEPLYRAFLEAYPRHPAAFAARRALATLKAGGLSLEVERLTLVPGGPDARPFRAGEAIFPEVRLEGRPYLRQASLFTALYREGRKVAEEEKPVGFPPLTVALLEVAPPVVPEAPGRYRLEVRYAEARAVLDLEVGAPSLARRLFALGLEVRDLSGRPLLTPKEALGEDGERLLLERAREALMEAAPLATTERLTQPLEKGPVAGRSVQEVLRDPDPEILRAFFQAVLENPERLAETDVVNAFVNWLLEP”, with “failed”; and “MRRLKRDPLERAFLRGYQNGITGKSRDLCPFTHPTTRQSWLNGWREGRGDNWDGLTGTAGLQRLNQLQHVLEHHHHHH”, with “failed”. On to “MRRLLFLSLAGLWLFSPAAAAQLPGLISQPLAGGGQSWSLSVQTLVFITSLTFLPAILLMMTSFTRIIIVFGLLRNALGTPSAPPNQVLLGLALFLTFFIMSPVIDKIYVDAYQPFSEQKISMQEALDKGAQPLRAFMLRQTREADLALFARLANSGPLQGPEAVPMRILLPAYVTSELKTAFQIGFTIFIPFLIIDLVIASVLMALGMMMVPPATIALPFKLMLFVLVDGWQLLMGSLAQSFYS”, for which the protein production result is recorded as “failed”. Then “MRRNRPGARHCPAFSGYPDPGFPRGSRRSGSSRRGKSRIMDWLKSLPGIGPLIARLMTTHAWRSYERLDRVKWTQLAAAMTFISFVALFPLLTVAAAIGAAALSEEQQKTLQDKLAEQVPGISDQLDIHALVQNAGTVGVIAGAVLLFTGIGWVGAMRDCLRAVWELDDDEENPFLRKLKDGGVLLGLGGAVLVTLATSTVASAMVGWTADRLGIERDGWGSVLLHITAFLVAVLADFLLLLYVLTLLPGVEPTRRRLVVAALIGAVGFELLKLLLSGYIQGVASKSMYGAFGVPVALLLWINFTSKLLLFCAAWTATPSDGPAEEEVSGASDDVPDRAAASGG”, with “failed”.

With “MRRPVSKWALLALLFTALLAADQWTKYLAVERLTVVFERGGDETLAERVRGFYTYRHLEPLSTEPYYVWRPVWRMNYVENPGAAWGLFRGHSQFFRNAFFTLVSVAAVAFILHYYRKLRQDQRYLQVALGLVLAGAVGNFVDRLARRYVIDFIEWYWWNRPDIRWPTFNVADSLIVVGVAMLVLHPGSRREAARAPARRDAAAERV”, the protein production entry was “failed”. As to “MRRQELARQCGERSKKDNKKGSAKAKKMEQMRNESRASTPSKDSNTSQSTASSTPTTSAGPGSKSEAGSTGTTTTNSTANSTTSRAHRKSTQSTPSTARPGTPSDKKEDPAAAETTEEEGPVAPKKKRMSEQRPSLTGSDVAEKPLPPTT”, the protein production result is on record as “failed”.
